Our source for the HI (hemagglutination inhibition titer) (fold dilution of the ascites fluid) values is EP0621339B1 (TAKARA SHUZO CO. LTD., dated 2001).

The target in this assay is HA molecule (haemagglutinin) of A/Okuda/57 (H2N2) (influenza A virus, H2N2 subtype, strain A/Okuda/57). The assay can be described thus: cell-based or functional assay.

Turning to monoclonal antibody C179, the HI (hemagglutination inhibition titer) (fold dilution of the ascites fluid) was below 32.
